# Test results as given in patent US20120121591A1 (priority 2009, published 2012).
# Read-outs that look alike come from different tables or passages of the source. No end group written: not given here.
# B1: Bivalent Fc-L10-ShK[1-35] homodimer (Fc fusion)
# chain: GGGGSGGGGSRSCIDTIPKSRCTAFQCKHSMKYRLSFCRKTCGTC
# modifications: not fully specified (N-terminus); ends and bridges not checked; also: homodimer via Fc
# B2: Bivalent Fc-L10-ShK[2-35] homodimer (Fc fusion)
# chain: GGGGSGGGGSSCIDTIPKSRCTAFQCKHSMKYRLSFCRKTCGTC
# modifications: not fully specified (N-terminus); ends and bridges not checked; also: homodimer via Fc
# How the values were obtained:
# human Kv1.3 [1] = biological target: T1, human Kv1.3 (Homo sapiens, UniProt P22001); assay: cell-based or functional assay
# T1 sequence (P22001 whole entry): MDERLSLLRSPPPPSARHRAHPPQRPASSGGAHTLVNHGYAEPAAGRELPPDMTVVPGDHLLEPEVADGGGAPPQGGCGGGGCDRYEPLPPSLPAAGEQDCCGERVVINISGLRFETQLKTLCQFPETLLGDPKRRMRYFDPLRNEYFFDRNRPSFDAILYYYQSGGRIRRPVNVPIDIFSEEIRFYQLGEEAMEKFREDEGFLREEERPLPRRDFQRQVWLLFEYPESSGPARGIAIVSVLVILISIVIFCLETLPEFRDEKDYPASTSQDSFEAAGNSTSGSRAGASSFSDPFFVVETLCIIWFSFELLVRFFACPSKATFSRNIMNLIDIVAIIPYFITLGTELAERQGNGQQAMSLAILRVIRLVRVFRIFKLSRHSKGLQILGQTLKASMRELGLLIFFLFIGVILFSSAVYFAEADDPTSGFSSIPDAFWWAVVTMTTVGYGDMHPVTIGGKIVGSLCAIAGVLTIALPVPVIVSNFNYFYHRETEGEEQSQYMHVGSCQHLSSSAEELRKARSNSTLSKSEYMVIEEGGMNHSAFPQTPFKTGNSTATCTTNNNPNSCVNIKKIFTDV
# human Kv1.1 [2] = biological target: T2, human Kv1.1 (Homo sapiens, UniProt Q09470); assay: cell-based or functional assay
# T2 sequence (Q09470 whole entry): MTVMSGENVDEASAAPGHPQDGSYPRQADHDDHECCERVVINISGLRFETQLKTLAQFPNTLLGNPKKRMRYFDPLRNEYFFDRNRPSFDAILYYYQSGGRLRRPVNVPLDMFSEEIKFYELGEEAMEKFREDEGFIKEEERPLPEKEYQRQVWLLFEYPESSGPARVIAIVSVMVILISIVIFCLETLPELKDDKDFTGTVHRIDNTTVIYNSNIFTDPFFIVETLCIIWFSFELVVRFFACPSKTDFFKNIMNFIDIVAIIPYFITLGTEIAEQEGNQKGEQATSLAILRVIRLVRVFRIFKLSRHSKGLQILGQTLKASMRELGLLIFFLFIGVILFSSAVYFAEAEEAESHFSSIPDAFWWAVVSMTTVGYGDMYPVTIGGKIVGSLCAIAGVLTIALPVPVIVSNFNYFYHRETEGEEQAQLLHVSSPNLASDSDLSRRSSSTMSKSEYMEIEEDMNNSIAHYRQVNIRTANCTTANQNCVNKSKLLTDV
# human Kv1.3 [3] = biological target: T1, human Kv1.3; assay: cell-based or functional assay; remark: listed apart in the source
# human Kv1.1 [4] = biological target: T2, human Kv1.1; assay: cell-based or functional assay; remark: listed apart in the source
# hCav1.2 (ICa) (human) = hCav1.2 (ICa) (human) (UniProt Q13936); assay: cell-based or functional assay
# hKv4.3 (Ito) (human) = hKv4.3 (Ito) (human) (UniProt Q9UK17); assay: cell-based or functional assay
# Sequence of hKv4.3 (Ito) (human) (Q9UK17 whole entry): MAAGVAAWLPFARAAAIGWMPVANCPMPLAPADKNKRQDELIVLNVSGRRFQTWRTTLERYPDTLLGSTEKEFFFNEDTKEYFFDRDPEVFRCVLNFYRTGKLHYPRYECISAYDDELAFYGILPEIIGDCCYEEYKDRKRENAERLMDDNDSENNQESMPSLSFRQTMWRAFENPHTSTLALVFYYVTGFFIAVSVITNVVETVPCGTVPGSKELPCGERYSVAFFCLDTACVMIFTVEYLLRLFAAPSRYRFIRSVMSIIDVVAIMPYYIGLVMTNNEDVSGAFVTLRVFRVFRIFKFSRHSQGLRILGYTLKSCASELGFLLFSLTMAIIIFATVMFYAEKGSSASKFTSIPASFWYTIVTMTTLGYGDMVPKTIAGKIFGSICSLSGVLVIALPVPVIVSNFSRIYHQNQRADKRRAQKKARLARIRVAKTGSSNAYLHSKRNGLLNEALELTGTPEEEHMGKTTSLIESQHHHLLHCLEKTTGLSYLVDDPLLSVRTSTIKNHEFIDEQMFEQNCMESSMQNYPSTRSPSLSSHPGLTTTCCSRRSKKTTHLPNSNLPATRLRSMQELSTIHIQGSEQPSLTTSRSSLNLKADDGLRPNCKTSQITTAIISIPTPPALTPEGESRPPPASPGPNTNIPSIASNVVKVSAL
# BKCa (human) = BKCa (human) (UniProt Q12791); assay: cell-based or functional assay
# Sequence of BKCa (human) (Q12791 whole entry): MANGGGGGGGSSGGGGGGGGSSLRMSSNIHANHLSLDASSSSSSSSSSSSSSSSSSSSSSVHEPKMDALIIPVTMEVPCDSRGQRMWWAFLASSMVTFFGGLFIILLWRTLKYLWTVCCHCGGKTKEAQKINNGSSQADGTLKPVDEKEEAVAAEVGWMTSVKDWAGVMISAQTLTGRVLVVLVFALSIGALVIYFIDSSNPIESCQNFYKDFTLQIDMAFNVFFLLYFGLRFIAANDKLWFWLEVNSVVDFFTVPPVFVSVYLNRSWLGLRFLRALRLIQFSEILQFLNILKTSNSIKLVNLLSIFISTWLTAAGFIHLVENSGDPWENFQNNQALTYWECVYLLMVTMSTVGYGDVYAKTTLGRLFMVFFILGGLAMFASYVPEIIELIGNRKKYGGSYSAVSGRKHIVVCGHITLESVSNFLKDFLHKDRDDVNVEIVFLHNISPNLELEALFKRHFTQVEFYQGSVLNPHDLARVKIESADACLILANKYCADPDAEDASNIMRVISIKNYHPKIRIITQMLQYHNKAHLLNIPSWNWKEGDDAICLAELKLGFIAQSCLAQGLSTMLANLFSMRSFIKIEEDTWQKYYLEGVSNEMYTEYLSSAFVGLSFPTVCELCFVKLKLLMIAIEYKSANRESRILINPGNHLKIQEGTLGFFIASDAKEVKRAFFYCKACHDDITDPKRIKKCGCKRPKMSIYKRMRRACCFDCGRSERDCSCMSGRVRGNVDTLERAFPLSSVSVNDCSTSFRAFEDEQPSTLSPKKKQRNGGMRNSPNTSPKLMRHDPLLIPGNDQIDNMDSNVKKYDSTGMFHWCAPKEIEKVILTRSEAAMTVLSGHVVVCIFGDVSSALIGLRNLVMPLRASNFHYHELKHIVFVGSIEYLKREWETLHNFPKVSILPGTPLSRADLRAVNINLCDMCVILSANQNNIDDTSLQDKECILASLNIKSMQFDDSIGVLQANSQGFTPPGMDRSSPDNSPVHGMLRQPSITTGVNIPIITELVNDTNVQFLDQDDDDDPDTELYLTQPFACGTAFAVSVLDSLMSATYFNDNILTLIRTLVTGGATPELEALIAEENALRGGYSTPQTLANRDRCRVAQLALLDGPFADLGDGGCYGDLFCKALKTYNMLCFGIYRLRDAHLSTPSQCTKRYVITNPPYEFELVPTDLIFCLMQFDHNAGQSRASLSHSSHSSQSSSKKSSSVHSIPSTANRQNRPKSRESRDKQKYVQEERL
# hKv1.5 = hKv1.5 (Homo sapiens, UniProt P22460); assay: cell-based or functional assay
# Sequence of hKv1.5 (P22460 whole entry): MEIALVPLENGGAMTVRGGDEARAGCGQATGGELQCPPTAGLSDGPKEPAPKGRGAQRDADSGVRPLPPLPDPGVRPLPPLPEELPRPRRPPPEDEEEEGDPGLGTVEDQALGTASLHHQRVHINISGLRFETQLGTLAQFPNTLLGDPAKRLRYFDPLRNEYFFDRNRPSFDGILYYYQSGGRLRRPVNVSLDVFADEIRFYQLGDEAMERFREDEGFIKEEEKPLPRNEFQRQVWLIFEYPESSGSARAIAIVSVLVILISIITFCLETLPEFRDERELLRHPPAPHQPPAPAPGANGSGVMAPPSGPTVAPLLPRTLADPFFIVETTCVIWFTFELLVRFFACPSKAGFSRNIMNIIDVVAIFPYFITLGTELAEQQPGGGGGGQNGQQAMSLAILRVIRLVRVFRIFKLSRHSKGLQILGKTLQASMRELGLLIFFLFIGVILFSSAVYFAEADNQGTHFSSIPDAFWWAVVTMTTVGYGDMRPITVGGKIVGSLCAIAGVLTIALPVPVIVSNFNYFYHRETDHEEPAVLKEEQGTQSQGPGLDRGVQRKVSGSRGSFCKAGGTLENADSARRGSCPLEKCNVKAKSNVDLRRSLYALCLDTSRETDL
# hKv1.6 = hKv1.6 (Homo sapiens, UniProt P17658); assay: cell-based or functional assay
# hERG (IKr) (human) = hERG (IKr) (human) (UniProt Q12809); assay: cell-based or functional assay
# hKv1.4 = hKv1.4 (Homo sapiens, UniProt P22459); assay: cell-based or functional assay
# hKv1.2 = hKv1.2 (Homo sapiens, UniProt P16389); assay: cell-based or functional assay
# Sequence of hKv1.2 (P16389 whole entry): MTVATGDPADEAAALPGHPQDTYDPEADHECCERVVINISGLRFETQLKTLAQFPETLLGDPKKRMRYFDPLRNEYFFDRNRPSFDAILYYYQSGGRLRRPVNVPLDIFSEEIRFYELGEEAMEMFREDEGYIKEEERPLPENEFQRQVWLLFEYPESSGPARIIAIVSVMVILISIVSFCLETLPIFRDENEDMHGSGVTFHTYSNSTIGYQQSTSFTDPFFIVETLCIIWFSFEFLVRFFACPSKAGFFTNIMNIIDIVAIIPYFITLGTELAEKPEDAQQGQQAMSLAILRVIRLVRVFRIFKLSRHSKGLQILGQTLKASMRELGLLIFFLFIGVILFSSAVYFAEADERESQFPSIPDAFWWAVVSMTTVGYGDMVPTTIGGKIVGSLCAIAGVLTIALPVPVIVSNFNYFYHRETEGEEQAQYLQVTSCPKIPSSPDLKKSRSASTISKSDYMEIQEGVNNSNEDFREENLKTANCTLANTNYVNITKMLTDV
# hNav1.5 (INa) (human) = hNav1.5 (INa) (human) (UniProt Q14524); assay: cell-based or functional assay
# [5] = biological target: cynomolgus monkey T cell Kv1.3 (cynomolgus monkey); assay: cell-based or functional assay
# hKv1.7 = hKv1.7 (Homo sapiens, UniProt Q96RP8); assay: cell-based or functional assay
# Sequence of hKv1.7 (Q96RP8 whole entry): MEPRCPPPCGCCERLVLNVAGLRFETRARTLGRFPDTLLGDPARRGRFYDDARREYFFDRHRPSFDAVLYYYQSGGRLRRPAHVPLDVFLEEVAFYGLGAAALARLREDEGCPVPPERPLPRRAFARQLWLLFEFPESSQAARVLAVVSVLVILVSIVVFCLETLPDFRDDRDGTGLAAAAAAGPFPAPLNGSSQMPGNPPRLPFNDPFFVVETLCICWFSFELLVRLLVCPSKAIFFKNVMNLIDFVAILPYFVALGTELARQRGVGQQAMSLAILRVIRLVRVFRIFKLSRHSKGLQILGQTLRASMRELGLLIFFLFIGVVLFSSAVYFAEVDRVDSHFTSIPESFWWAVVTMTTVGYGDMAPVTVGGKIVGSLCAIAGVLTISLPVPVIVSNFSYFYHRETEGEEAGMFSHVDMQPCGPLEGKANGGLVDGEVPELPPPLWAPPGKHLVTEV
# [6] = biological target: Glycine (Strychnine insensitive) (Cerep target) (human); assay: Cerep safety pharmacology binding assay
# [7] = biological target: NMDA (Cerep target) (human); assay: Cerep safety pharmacology binding assay
# [8] = biological target: Glycine (Strychnine insensitive) (Cerep target) (human)
# [9] = biological target: NMDA (Cerep target) (human)
# [10] = assay type: in vivo, rat; details: Sprague-Dawley rats
# Description: Single subcutaneous doses were delivered to animals and serum was collected at various time points after injection. Studies in rats, dogs (beagles), and cynomolgus monkeys involved two to three animals per dose group, with blood and serum collection occurring at various time points over the course of the study. Male Sprague-Dawley (SD) rats (about 0.3 kg), male beagles (about 10 kg) and male cynomolgus monkeys (about 4 kg) were used in the studies described herein (n=3 animals per dose group). Approximately 5 male CD-1 mice were used per dose and time point in our mouse pharmacokinetic studies. Serum samples were stored frozen at −80° C., until analysis in an enzyme-linked immunosorbent assay (ELISA).
# Single subcutaneous doses were delivered to animals and serum was collected at various time points after injection. Three animals were used per dose group, with blood and serum collection occurring at various time points over the course of the study. Serum samples were stored frozen at −80° C., until analysis in an enzyme-linked immunosorbent assay (ELISA). […] A brief description of these ELISA protocols is provided: […]
# human Kv1.3 [11] = biological target: T1, human Kv1.3; assay type: cell-based; details: for IC50: read-out: Kv1.3 IC50, whole cell patch clamp
# [12] = tested on: IFN-g secretion from T cells in human whole blood; assay type: cell-based
# [13] = tested on: IL-2 secretion from T cells in human whole blood; assay type: cell-based
# hKv1.3 = hKv1.3 (Homo sapiens, UniProt P22001); assay: cell-based; assay type: cell-based
# Sequence of hKv1.3 (P22001 whole entry): as the sequence (P22001 whole entry) above
# human Kv1.1 [14] = biological target: T2, human Kv1.1; assay type: cell-based; details: read-out: Kv1.1 IC50, whole cell patch clamp
# [15] = tested on: human CD34-derived mast cells
# [16] = assay type: in vivo, rat; details: male SD rats, single SC dose
# Procedure: Hypoactivity and lateral recumbence were also observed at 0.4 mg/kg. […] The severity of swelling was not dose dependent, and all clinical observations noted in all groups that survived to their scheduled euthanasia resolved by approximately 24 hours postdose. […] Other changes noted at lower doses were limited to decreased lymphocytes and triglycerides at 0.4 mg/kg.
# All clinical signs were resolved by day 11. […] Hematologic effects in animals given ≧0.5 mg/kg/day were consistent with increased red cell turnover, and correlated with increased spleen weights, and increased splenic hemopoiesis.
# Exposures increased with increasing dose up to 2.5 mg/kg, but exposures were similar in rats given 2.5 and 5.0 mg/kg. […] There was a decrease in body weight and body weight gain noted in the 2.5 and 5.0 mg/kg/dose groups. […] Urine chemistry values were increased in a few animals/group at 0.5 or 2.0 mg/kg/day, but these changes were inconsistent among and within animals, and considered unlikely to be related to treatment. There were no test article-related effects on biomarkers of renal injury (beta-2 microglobulin, calbindin, clusterin, cystatin C, glutathione S-transferase alpha, kidney injury molecule-1, neutrophil gelatinase-associated lipocalin, osteopontin, tissue inhibitor of metalloproteinase-1, and vascular endothelial growth factor). […]
molecule,measurement,setting,value
20 kDa PEG-ShK (peptide),Kv1.3 IC50 (whole cell patch clamp),human Kv1.3 [1],0.299 nM
same,WB (IFNg) IC50,human Kv1.3 [1],0.84 nM
same,WB (IL-2) IC50,human Kv1.3 [1],0.38 nM
same,Kv1.1 IC50 (whole cell patch clamp),human Kv1.1 [2],1.63 nM
same,Kv1.3 (IWQ) IC50,human Kv1.3 [3],1.21 nM
same,WB (IFNg) IC50,human Kv1.3 [3],0.855 nM
same,WB (IL-2) IC50,human Kv1.3 [3],0.387 nM
same,Kv1.1 (IWQ) IC50,human Kv1.1 [4],0.11 nM
20 kDa PEG-[Lys16]ShK (peptide),Cav1.2 (ICa) IC50,hCav1.2 (ICa) (human),> 30000 nM
same,Kv4.3 (Ito) IC50,hKv4.3 (Ito) (human),> 30000 nM
same,BKCa IC50,BKCa (human),> 10000 nM
same,Kv1.5 IC50,hKv1.5,> 30000 nM
same,Kv1.6 IC50,hKv1.6,466 nM
same,hERG (IKr) IC50,hERG (IKr) (human),> 10000 nM
same,IFNγ production in human whole blood IC50,human Kv1.3 [3],0.24 nM
same,IL-2 production in human whole blood IC50,human Kv1.3 [3],0.109 nM
same,Kv1.3 (IWQ) IC50,human Kv1.3 [3],0.665 nM
same,WB (IFNg) IC50,human Kv1.3 [3],0.215 nM
same,WB (IL-2) IC50,human Kv1.3 [3],0.104 nM
same,whole blood IL-2 secretion IC95,human Kv1.3 [3],1.01 nM
same,Kv1.4 IC50,hKv1.4,> 10000 nM
same,Kv1.2 IC50,hKv1.2,639 nM
same,Nav1.5 (INa) IC50,hNav1.5 (INa) (human),> 30000 nM
same,Kv1.1 (IWQ) IC50,human Kv1.1 [4],1080 nM
same,"cyno whole blood PD assay, IL-4 response IC50",[5],0.17 nM
same,"cyno whole blood PD assay, IL-17 response IC50",[5],0.09 nM
same,Kv1.7 IC50,hKv1.7,> 10000 nM
same,IC50,[6],1700 nM
same,IC50,[7],10000 nM
same,% Inhibition,[8],101%
same,% Inhibition,[9],71%
20 kDa-PEG-ShK: ShK conjugated with an N-terminal 20 kDa PEG moiety,AUC0-inf,[10]; SC 0.3 mg/kg,"6,020 ng · hr · mL^−1"
same,AUC0-t,[10]; SC 0.3 mg/kg,6011 ng·h/mL
same,Cmax,[10]; SC 0.3 mg/kg,165 ng/mL
same,DNAUC (0-inf),[10]; SC 0.3 mg/kg,20065
same,MRT,[10]; SC 0.3 mg/kg,27 h
same,Tmax,[10]; SC 0.3 mg/kg,24 h
same,AUC0-inf,[10]; SC 2 mg/kg,"42374 ± 10,237 ng · hr · mL^−1"
same,AUC0-t,[10]; SC 2 mg/kg,"42347 ± 10,228 ng · hr · mL^−1"
same,Cmax,[10]; SC 2 mg/kg,1138 ± 404 ng/mL
same,DNAUC (0-inf),[10]; SC 2 mg/kg,21187
same,MRT,[10]; SC 2 mg/kg,37 ± 3 h
same,Tmax,[10]; SC 2 mg/kg,24 ± 0 h
same,IC50,human Kv1.3 [11],0.299 nM
same,IC50,[12]; read-out: WB (IFNg) IC50,0.84 nM
same,IC50,"[12]; read-out: WB (IFNg) IC50 (nM, Avg)",0.855 nM
same,IC50,[13]; read-out: WB (IL-2) IC50,0.38 nM
same,IC50,"[13]; read-out: WB (IL-2) IC50 (nM, Avg)",0.387 nM
same,IC50,"hKv1.3; read-out: Kv1.3 (IWQ) IC50 (nM, Avg)",1.21 nM
30kPEG-[Lys16]ShK (peptide),Kv1.3 (PX) IC50,human Kv1.3 [1],1.2 nM
same,WB (IFNg) IC50,human Kv1.3 [1],0.491 nM
same,WB (IL-2) IC50,human Kv1.3 [1],0.282 nM
same,Kv1.1 (PX) IC50,human Kv1.1 [2],1070 nM
same,Kv1.3 (IWQ) IC50,human Kv1.3 [3],0.454 nM
same,Kv1.1 (IWQ) IC50,human Kv1.1 [4],33.3 nM
"Bivalent Fc-L10-ShK[1-35] homodimer: bivalent IgG1 Fc-L10-ShK[1-35] peptibody, Example 1 of WO2008/088422A2 (GGGGSGGGGSRSCIDTIPKSRCTAFQCKHSMKYRLSFCRKTCGTC; not fully specified (N-terminus); ends and bridges not checked; also: homodimer (bivalent Fc peptibody))",IC50,human Kv1.1 [14],0.067 nM
same,IC50,[12]; read-out: WB (IFNg) IC50,0.32 nM
same,IC50,[13]; read-out: WB (IL-2) IC50,0.386 nM
"Bivalent Fc-L10-ShK[2-35] homodimer: bivalent IgG1 Fc-L10-ShK[2-35] peptibody, Example 2 of WO2008/088422A2 (Fc-GGGGSGGGGSSCIDTIPKSRCTAFQCKHSMKYRLSFCRKTCGTC; ends and bridges not checked; also: homodimer via IgG1 Fc)",Kv1.1/Kv1.3 Selectivity Ratio,human Kv1.3 [11],3.54
same,IC50,human Kv1.3 [11],0.116 nM
same,IC50,human Kv1.1 [14],0.411 nM
same,IC50,[12]; read-out: WB (IFNg) IC50,2.29 nM
same,"Potency Relative to ShK (WB, IL2)",[13],8.73
same,IC50,[13]; read-out: WB (IL-2) IC50,0.585 nM
"MCDP: basic secretagogue, positive control (IKCNCKRHVIKPHICRKICGKN; ends and bridges not checked; cysteine pairing not given here; UniProt P01499 28-49, looked up)",Degranulation / histamine release of human CD34-derived mast cells,[15],highly active
"PEG-[1-Nal 16]ShK: PEG conjugate of the 1-Nal16 analog of ShK, relatively Kv1.3-inactive (RSCIDTIPKSRCTAFXCKHSMKYRLSFCRKTCGTC; PEG; ShK PEGylated toxin peptide analog; PEGylated; 3-(1-naphthyl)alanine)",Molar AUC exposure compared with PEG-[Lys16]ShK and anti-KLH Ab-[Lys16]ShK,[16],6-8 ×
same,Times less activity of the PEG conjugate than of the free peptide (Kv1.3),hKv1.3,about 57 times
[1-Nal19]ShK (peptide),Kv1.3 (IWQ) IC50,human Kv1.3 [3],0.277 nM
same,WB (IFNg) IC50,human Kv1.3 [3],0.255 nM
same,WB (IL-2) IC50,human Kv1.3 [3],0.153 nM
same,Kv1.1 (IWQ) IC50,human Kv1.1 [4],0.001 nM
[1-Nal23]ShK (peptide),Kv1.3 (IWQ) IC50,human Kv1.3 [3],3.3 nM
same,WB (IFNg) IC50,human Kv1.3 [3],100 nM
same,WB (IL-2) IC50,human Kv1.3 [3],100 nM
same,Kv1.1 (IWQ) IC50,human Kv1.1 [4],3.3 nM
[Nle21]ShK (peptide),Kv1.3 (IWQ) IC50,human Kv1.3 [3],0.04 nM
same,WB (IFNg) IC50,human Kv1.3 [3],0.303 nM
same,WB (IL-2) IC50,human Kv1.3 [3],0.153 nM
same,Kv1.1 (IWQ) IC50,human Kv1.1 [4],0.015 nM
"substance P: basic secretagogue, positive control",Degranulation / histamine release of human CD34-derived mast cells,[15],highly active
B1,Kv1.3 IC50 (whole cell patch clamp),human Kv1.3 [1],0.015 nM
same,WB (IFNg) IC50,human Kv1.3 [1],0.32 nM
same,WB (IL-2) IC50,human Kv1.3 [1],0.386 nM
same,Kv1.1 IC50 (whole cell patch clamp),human Kv1.1 [2],0.067 nM
B2,Kv1.3 IC50 (whole cell patch clamp),human Kv1.3 [1],0.116 nM
same,WB (IFNg) IC50,human Kv1.3 [1],2.29 nM
same,WB (IL-2) IC50,human Kv1.3 [1],0.585 nM
same,Kv1.1 IC50 (whole cell patch clamp),human Kv1.1 [2],0.411 nM
